The term Km denotes the concentration of substrate that gives half-maximal velocity. The term kcat denotes the number of substrate molecules converted per active site and unit of time at saturation. A word on the kcat/Km: it is the turnover number divided by the Michaelis constant.

Substrate in series [1]: CC(=O)N[C@H]1[C@H](Oc2ccc([N+](=O)[O-])cc2)O[C@H](CO)[C@@H](O)[C@@H]1O
The experiment in a line: purified protein. It is filed as biochemical, Talaromyces flavus. The following applies: McIlvaine buffer pH 5.0, 25 °C, hydrolysis.

Substrate in series [2]: CC(=O)N[C@H]1[C@H](Oc2ccc([N+](=O)[O-])cc2)O[C@H](CO)[C@H](O)[C@@H]1O
Kind of series: purified protein. The class given is biochemical, Talaromyces flavus. The following applies: McIlvaine buffer pH 5.0, 25 °C, hydrolysis.

B1: TfHex (β-N-acetylhexosaminidase from Talaromyces flavus) (Talaromyces flavus; Y470N) (protein)
chain: VAVNPLPAPRSITWGTSGPISVPHNVDVKLPKNAIINDAWERAWTSIKQLRWVPQATEAPISSYEPFPTVAPTSASTASSTPLPSSSAAAVAARSQKRGHQKGSHEKRGHSQSTLRTVTVTVSDLNADLQAEVDESYTLVLDSGSSTLAITANTTWGALHAFTTLQQLVIYQDNSLIIEQPVHIEDSPLYPWRGVMIDTGRNFITVPKIKEQIDGMALSKLNILHWHLDDSQSWPVHMDTYPQMTNDAYSPWQTYSHEDIKDIIEYARARAVRVVPEVDMPGHSAAGWQQVDPSIVACAHSWWSNDNWPYHTAVEPTPGQLDPLNNKTYGVVEKVYNELSGIFTDDFFHVGGDELQTGCYNFSTYVSDYLAADPSRTYNDVTQYWVDHAFPIFKKIQNRKLVIWEDLIINNPHAPNVSTENLLVQSWNNGLTNINNLTNLGYDVLVSSSDFMNLDCGYGGFVTNDPRYDVMVNPDAVDGLANFNWGGNGGSWCAPYKTWQRIYDYDFTTNLTDAQAAHVKGAVAPLWSEQVDDTVISGKMWPRAAALAELVWSGNKDPKTGDKRTTYMTQRILNFREYLVANGVQAAPLVPKYCLQHPHSCDLYYDQTAVV
notes: secreted from Pichia pastoris KM71H, pPICZαA vector; purified by cation-exchange chromatography
As to B1, in the series “purified protein [1]”, the Km was found to be 890 ± 130 µM, the kcat is 11.6 ± 0.6 s⁻¹ and the kcat/Km was found to be 13000 M⁻¹ s⁻¹. Moreover, in “purified protein [2]”, the Km turned out to be 890 ± 90 µM, the turnover number (kcat) came out at 0.35 ± 0.01 s⁻¹ and the kcat/Km worked out at 400 M⁻¹ s⁻¹.

B2: TfHex (β-N-acetylhexosaminidase from Talaromyces flavus) (Talaromyces flavus; Y470H) (protein)
chain: VAVNPLPAPRSITWGTSGPISVPHNVDVKLPKNAIINDAWERAWTSIKQLRWVPQATEAPISSYEPFPTVAPTSASTASSTPLPSSSAAAVAARSQKRGHQKGSHEKRGHSQSTLRTVTVTVSDLNADLQAEVDESYTLVLDSGSSTLAITANTTWGALHAFTTLQQLVIYQDNSLIIEQPVHIEDSPLYPWRGVMIDTGRNFITVPKIKEQIDGMALSKLNILHWHLDDSQSWPVHMDTYPQMTNDAYSPWQTYSHEDIKDIIEYARARAVRVVPEVDMPGHSAAGWQQVDPSIVACAHSWWSNDNWPYHTAVEPTPGQLDPLNNKTYGVVEKVYNELSGIFTDDFFHVGGDELQTGCYNFSTYVSDYLAADPSRTYNDVTQYWVDHAFPIFKKIQNRKLVIWEDLIINNPHAPNVSTENLLVQSWNNGLTNINNLTNLGYDVLVSSSDFMHLDCGYGGFVTNDPRYDVMVNPDAVDGLANFNWGGNGGSWCAPYKTWQRIYDYDFTTNLTDAQAAHVKGAVAPLWSEQVDDTVISGKMWPRAAALAELVWSGNKDPKTGDKRTTYMTQRILNFREYLVANGVQAAPLVPKYCLQHPHSCDLYYDQTAVV
notes: as for B1
As to B2, in the series “purified protein [1]”, the Km was 53 ± 8 µM, the kcat is 0.67 ± 0.02 s⁻¹ and the kcat/Km came to 13000 M⁻¹ s⁻¹. In addition, in the series “purified protein [2]”, the Km was found to be 350 ± 30 µM, the kcat was found to be 0.188 ± 0.004 s⁻¹ and the kcat/Km was 530 M⁻¹ s⁻¹.

B3: TfHex (β-N-acetylhexosaminidase from Talaromyces flavus) (Talaromyces flavus; Y470F) (protein)
chain: VAVNPLPAPRSITWGTSGPISVPHNVDVKLPKNAIINDAWERAWTSIKQLRWVPQATEAPISSYEPFPTVAPTSASTASSTPLPSSSAAAVAARSQKRGHQKGSHEKRGHSQSTLRTVTVTVSDLNADLQAEVDESYTLVLDSGSSTLAITANTTWGALHAFTTLQQLVIYQDNSLIIEQPVHIEDSPLYPWRGVMIDTGRNFITVPKIKEQIDGMALSKLNILHWHLDDSQSWPVHMDTYPQMTNDAYSPWQTYSHEDIKDIIEYARARAVRVVPEVDMPGHSAAGWQQVDPSIVACAHSWWSNDNWPYHTAVEPTPGQLDPLNNKTYGVVEKVYNELSGIFTDDFFHVGGDELQTGCYNFSTYVSDYLAADPSRTYNDVTQYWVDHAFPIFKKIQNRKLVIWEDLIINNPHAPNVSTENLLVQSWNNGLTNINNLTNLGYDVLVSSSDFMFLDCGYGGFVTNDPRYDVMVNPDAVDGLANFNWGGNGGSWCAPYKTWQRIYDYDFTTNLTDAQAAHVKGAVAPLWSEQVDDTVISGKMWPRAAALAELVWSGNKDPKTGDKRTTYMTQRILNFREYLVANGVQAAPLVPKYCLQHPHSCDLYYDQTAVV
notes: as for B1
Take B3: in the series “purified protein [1]”, the Km was determined as 23 ± 8 µM, the kcat came to 0.27 ± 0.01 s⁻¹ and the kcat/Km amounted to 12000 M⁻¹ s⁻¹. Also, in “purified protein [2]”, the Km was determined as 50 ± 5 µM, the catalytic constant (kcat) came to 0.166 ± 0.003 s⁻¹ and the kcat/Km amounted to 3300 M⁻¹ s⁻¹.

B4: TfHex (β-N-acetylhexosaminidase from Talaromyces flavus) (Talaromyces flavus) (protein)
chain: VAVNPLPAPRSITWGTSGPISVPHNVDVKLPKNAIINDAWERAWTSIKQLRWVPQATEAPISSYEPFPTVAPTSASTASSTPLPSSSAAAVAARSQKRGHQKGSHEKRGHSQSTLRTVTVTVSDLNADLQAEVDESYTLVLDSGSSTLAITANTTWGALHAFTTLQQLVIYQDNSLIIEQPVHIEDSPLYPWRGVMIDTGRNFITVPKIKEQIDGMALSKLNILHWHLDDSQSWPVHMDTYPQMTNDAYSPWQTYSHEDIKDIIEYARARAVRVVPEVDMPGHSAAGWQQVDPSIVACAHSWWSNDNWPYHTAVEPTPGQLDPLNNKTYGVVEKVYNELSGIFTDDFFHVGGDELQTGCYNFSTYVSDYLAADPSRTYNDVTQYWVDHAFPIFKKIQNRKLVIWEDLIINNPHAPNVSTENLLVQSWNNGLTNINNLTNLGYDVLVSSSDFMYLDCGYGGFVTNDPRYDVMVNPDAVDGLANFNWGGNGGSWCAPYKTWQRIYDYDFTTNLTDAQAAHVKGAVAPLWSEQVDDTVISGKMWPRAAALAELVWSGNKDPKTGDKRTTYMTQRILNFREYLVANGVQAAPLVPKYCLQHPHSCDLYYDQTAVV
notes: as for B1
On to B4, for which, in “purified protein [1]”, the Km is 110 ± 20 µM, the kcat was 47 ± 1 s⁻¹ and the kcat/Km was found to be 434000 M⁻¹ s⁻¹. Further, in the series “purified protein [2]”, the Km came out at 690 ± 90 µM, the catalytic constant (kcat) was found to be 104 ± 5 s⁻¹ and the kcat/Km is 150000 M⁻¹ s⁻¹.

Source of the values: paper PMC6384963, “The β-N-Acetylhexosaminidase in the Synthesis of Bioactive Glycans: Protein and Reaction Engineering” (Molecules, 2019).
